Results as given in patent US20030105303A1.

Tests used:
[1] = target: DNAX Leukocyte Associated Immunoglobulin-like Receptor (DLAIR-1), the DX26 antigen / YE01 gene product (human); test: flow cytometry (FACScan) on Peer T cell tumor cells; PE goat-anti-mouse-IgG second step
[2] = target: DNAX Leukocyte Associated Immunoglobulin-like Receptor (DLAIR-1), the DX26 antigen / YE01 gene product (human); test: flow cytometry (FACScan) on HL60 promyeloid tumor cells; PE goat-anti-mouse-IgG second step
[3] = target: DNAX Leukocyte Associated Immunoglobulin-like Receptor (DLAIR-1), the DX26 antigen / YE01 gene product (human); test: flow cytometry (FACScan) on Molt4 T cell tumor cells; PE goat-anti-mouse-IgG second step
[4] = target: DNAX Leukocyte Associated Immunoglobulin-like Receptor (DLAIR-1), the DX26 antigen / YE01 gene product (human); test: flow cytometry (FACScan) on HUT78 T cell tumor cells; PE goat-anti-mouse-IgG second step
[5] = target: DNAX Leukocyte Associated Immunoglobulin-like Receptor (DLAIR-1), the DX26 antigen / YE01 gene product (human); test: flow cytometry (FACScan) on U937 myeloid tumor cells; PE goat-anti-mouse-IgG second step
[6] = target: DNAX Leukocyte Associated Immunoglobulin-like Receptor (DLAIR-1), the DX26 antigen / YE01 gene product (human); test: flow cytometry (FACScan) on Jurkat T cell tumor cells; PE goat-anti-mouse-IgG second step
[7] = target: DNAX Leukocyte Associated Immunoglobulin-like Receptor (DLAIR-1), the DX26 antigen / YE01 gene product (human); test: flow cytometry (FACScan) on CEM T cell tumor cells; PE goat-anti-mouse-IgG second step

mean fluorescence intensity [1]: 29.1 | mean fluorescence intensity [2]: 46.9 | mean fluorescence intensity [3]: 30.7 | mean fluorescence intensity [4]: 25.8 | mean fluorescence intensity [5]: 49.5 | mean fluorescence intensity [6]: 47.1 | mean fluorescence intensity [7]: 92.7
Substance: DX26 monoclonal antibody
